Assay in all cases: non-reducing SDS-PAGE and Western blot
In general terms: Immunoblotting shows a protein as a band on a membrane.

The target in assay [1] is Gbb15 made by cleavage at the atypical S0 site (from gbb mS1 or gbb mNSmS1), HA-tagged (Drosophila).
For assay [2], the target named is Gbb38 from gbb mS1, HA-tagged (Drosophila).
In assay [3] the target is proGbb, the uncleaved Gbb proprotein from gbb mNSmS1, HA-tagged (Drosophila).
In assay [4] the target is proGbb, the uncleaved Gbb proprotein from gbb mNSmS1mS0, HA-tagged (Drosophila).

Sequence of Gbb15 made by cleavage at the atypical S0 site (from gbb mS1 or gbb mNSmS1), HA-tagged (ligand) (P27091 37-455): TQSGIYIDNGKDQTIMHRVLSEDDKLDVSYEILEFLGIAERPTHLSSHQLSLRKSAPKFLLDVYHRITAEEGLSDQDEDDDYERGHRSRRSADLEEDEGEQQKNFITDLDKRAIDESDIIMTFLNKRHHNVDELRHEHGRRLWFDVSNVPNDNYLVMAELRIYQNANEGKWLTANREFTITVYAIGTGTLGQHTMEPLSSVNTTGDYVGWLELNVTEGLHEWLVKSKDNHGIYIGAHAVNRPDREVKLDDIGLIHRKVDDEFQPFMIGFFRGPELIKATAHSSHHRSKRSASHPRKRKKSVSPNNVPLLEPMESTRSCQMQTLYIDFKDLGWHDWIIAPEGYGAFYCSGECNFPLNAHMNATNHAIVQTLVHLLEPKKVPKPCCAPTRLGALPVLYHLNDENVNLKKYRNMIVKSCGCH

The substance “Gbb15 made by cleavage at the atypical S0 site (from gbb mS1 or gbb mNSmS1), HA-tagged (ligand)” showed a stoichiometry N in assay [1] of 2. Gbb38 from gbb mS1, HA-tagged (ligand) had a stoichiometry N in assay [2] of 2. In assay [3], “proGbb, the uncleaved Gbb proprotein from gbb mNSmS1, HA-tagged (natural protein)” registered a stoichiometry N of 2. Regarding “proGbb, the uncleaved Gbb proprotein from gbb mNSmS1mS0, HA-tagged (natural protein)”, the stoichiometry N in assay [4] is 2.

By stoichiometry N is commonly meant a count of units in the complex or per binding partner.

Values taken from article doi:10.1101/131276.
